Results as given in publication PMC3315481, “Phosphorylation of the Drosophila melanogaster RNA–Binding Protein HOW by MAPK/ERK Enhances Its Dimerization and Activity” (PLoS Genetics, 2012).

B1: Held Out Wings, long isoform, phospho-mutant T59A T64A (HOW(L)^TTAA) (natural protein, Drosophila melanogaster, UniProt O01367 1-405, looked up)
chain: MSVCESKAVVQQQLQQHLQQQAAAAVVAVAQQQQAQAQAQAQAQAQQQQQAPQVVVPMAPQHLAPQQQQQSTQSIADYLAQLLKDRKQLAAFPNVFTHVERLLDEEIARVRASLFQINGVKKEPLTLPEPEGSVVTMNEKVYVPVREHPDFNFVGRILGPRGMTAKQLEQETGCKIMVRGKGSMRDKKKEDANRGKPNWEHLSDDLHVLITVEDTENRATVKLAQAVAEVQKLLVPQAEGEDELKKRQLMELAIINGTYRDTTAKSVAVCDEEWRRLVAASDSRLLTSTGLPGLAAQIRAPAAAPLGAPLILNPRMTVPTTAASILSAQAAPTAAFDQTGHGMIFAPYDYANYAALAGNPLLTEYADHSVGAIKQQRRLATNREHPYQRATVGVPAKPAGFIEIQ
notes: Held Out Wings (HOW), isoform HOW(L), Drosophila melanogaster, with T59 and T64 mutated to alanine; Two differently tagged copies met in the co-IP: one fused to GFP (bait, vector pTGW) and one tagged with HA (prey, vector pTWH); also called HOW^TTAA; gfp-how(l)^TTAA; source: S2R+ cells, co-transfected, in lysate
B2: Held Out Wings, long isoform, dimerization mutant E106G (HOW(L)^EG) (natural protein, Drosophila melanogaster, UniProt O01367 1-405, looked up)
chain: MSVCESKAVVQQQLQQHLQQQAAAAVVAVAQQQQAQAQAQAQAQAQQQQQAPQVVVPMTPQHLTPQQQQQSTQSIADYLAQLLKDRKQLAAFPNVFTHVERLLDEGIARVRASLFQINGVKKEPLTLPEPEGSVVTMNEKVYVPVREHPDFNFVGRILGPRGMTAKQLEQETGCKIMVRGKGSMRDKKKEDANRGKPNWEHLSDDLHVLITVEDTENRATVKLAQAVAEVQKLLVPQAEGEDELKKRQLMELAIINGTYRDTTAKSVAVCDEEWRRLVAASDSRLLTSTGLPGLAAQIRAPAAAPLGAPLILNPRMTVPTTAASILSAQAAPTAAFDQTGHGMIFAPYDYANYAALAGNPLLTEYADHSVGAIKQQRRLATNREHPYQRATVGVPAKPAGFIEIQ
notes: Held Out Wings (HOW), isoform HOW(L), Drosophila melanogaster, with E106 mutated to glycine; Two differently tagged copies met in the co-IP: one fused to GFP (bait, vector pTGW) and one tagged with HA (prey, vector pTWH); also called HOW^EG; gfp-how(l)^EG; source: S2R+ cells, co-transfected, in lysate

Biological target: the molecule itself
Assay: co-IP; S2R+ cells co-transfected with GFP-fused and HA-tagged HOW(L) variants (or gfp with how(l)^WT-HA); lysis in 1% NP40 buffer (50 mM Tris pH 7.5, 100 mM NaCl); IP with mouse anti-GFP on protein A/G beads 1-2 h at 4°C; Western blot with anti-HOW; co-precipitated HA protein normalised to its crude level and to the precipitated GFP protein

Protein | co-immunoprecipitated HA protein, normalised, relative to HOW(L)^WT
B1 | 0.56 ± 0.14
B2 | 0.13 ± 0.04
